According to article PMC10397247:
Values belong to the binder of their own block, whether it stands above or below them.

Columns and labels:
[1] = target: T1, P10SHb; test: two-hybrid library CCNG1;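 also: natural log of median RNA to DNA barcode read ratio; higher means stronger binding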
T1 chain: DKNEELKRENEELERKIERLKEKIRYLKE

[2] = target: T2, P11SHb; test: two-hybrid library CCNG1;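 also: natural log of median RNA to DNA barcode read ratio; higher means stronger binding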
T2 chain: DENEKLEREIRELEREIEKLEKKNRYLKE

[3] = target: T3, P12SHb; test: two-hybrid library CCNG1;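 also: natural log of median RNA to DNA barcode read ratio; higher means stronger binding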
T3 chain: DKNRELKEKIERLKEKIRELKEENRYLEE

[4] = target: T4, P1SHb; test: two-hybrid library CCNG1;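 also: natural log of median RNA to DNA barcode read ratio; higher means stronger binding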
T4 chain: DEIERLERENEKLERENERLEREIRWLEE

[5] = target: T5, P2SHb; test: two-hybrid library CCNG1;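 also: natural log of median RNA to DNA barcode read ratio; higher means stronger binding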
T5 chain: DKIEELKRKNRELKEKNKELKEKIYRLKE

[6] = target: T6, P3SHb; test: two-hybrid library CCNG1;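 also: natural log of median RNA to DNA barcode read ratio; higher means stronger binding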
T6 chain: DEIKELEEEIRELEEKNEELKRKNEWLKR

[7] = target: T7, P4SHb; test: two-hybrid library CCNG1
T7 chain: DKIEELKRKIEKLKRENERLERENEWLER

[8] = target: T8, P5SHb; test: two-hybrid library CCNG1
T8 chain: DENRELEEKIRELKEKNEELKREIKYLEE

[9] = target: T9, P6SHb; test: two-hybrid library CCNG1
T9 chain: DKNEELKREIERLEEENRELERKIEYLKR

[10] = target: T10, P7SHb; test: two-hybrid library CCNG1
T10 chain: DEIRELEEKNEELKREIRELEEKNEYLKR

[11] = target: T11, P8SHb; test: two-hybrid library CCNG1
T11 chain: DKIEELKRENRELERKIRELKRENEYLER

[12] = target: T12, P9SHb; test: two-hybrid library CCNG1
T12 chain: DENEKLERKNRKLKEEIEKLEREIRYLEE

[13] = target: T13, Core_NNIN-es_KEKE; test: two-hybrid library CCmax; details: mean of both orientations
T13 chain: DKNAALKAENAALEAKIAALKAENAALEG

[14] = target: T14, Core_NNNI-es_KKEE; test: two-hybrid library CCmax; details: mean of both orientations
T14 chain: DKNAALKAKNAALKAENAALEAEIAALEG

interaction score [1]: 0.734
interaction score [2]: 1.08
interaction score [3]: -0.4
interaction score [4]: -1.44
interaction score [5]: 0.782
interaction score [6]: -1.86
interaction score [7]: -0.49
interaction score [8]: 0.808
interaction score [9]: 1.07
interaction score [10]: -0.582
interaction score [11]: -0.0171
interaction score [12]: 1.97
Binder: DKNEELKRENEELERKIERLKEKIRYLKE [P10SHb]

interaction score [13]: 1.67
Binder: DENAALEAKNAALKAEIAALEAKNAALKG [Core_NNIN-es_EKEK]

interaction score [14]: 2.38
Binder: DENAALEAENAALEAKNAALKAKIAALKG [Core_NNNI-es_EEKK]
